Assay results as given in patent US20090036368A1, “Therapeutic Combination” (HAMLET PHARMA AB, priority 2005, published 2009).
Positions count from the first letter of the chain named. Names and notes keep the numbering of the source.

B1: D87A: bovine α-lactalbumin mutant, aspartic acid at position 87 replaced by alanine (protein, UniProt P00711 20-142, looked up, variant D87A)
Alpha-lactalbumin: EQLTKCEVFRELKDLKGYGGVSLPEWVCTTFHTSGYDTQAIVQNNDSTEYGLFQINNKIWCKDDQNPHSSNICNISCDKFLDDDLTADIMCVKKILDKVGINYWLAHKALCSEKLDQWLCEKL
B2: D87N: bovine α-lactalbumin mutant, aspartic acid at position 87 replaced by asparagine (protein, UniProt P00711 20-142, looked up, variant D87N)
Alpha-lactalbumin: B1 Alpha-lactalbumin with A87N
B3: HAMLET (protein, UniProt P00709 20-142, looked up)
Alpha-lactalbumin: KQFTKCELSQLLKDIDGYGGIALPELICTMFHTSGYDTQAIVENNESTEYGLFQISNKLWCKSSQVPQSRNICDISCDKFLDDDITDDIMCAKKILDIKGIDYWLAHKALCTEKLEQWLCEKL
modifications: complex with oleic acid

Columns and labels:
Jurkat cells [1] = assay: subG1 population / DNA fragmentation by flow cytometry after PI staining; format: cell-based; conditions: for DNA fragmentation (sub G0/G1), substance alone: TSA 100 ng/ml or SAHA 2.5 μM
Protocol: Cell Cycle Analysis by cytometry—Cells were harvested, washed with PBS and then fixed in suspension in 75% cold ethanol at 4° C. for 2 hours at least. The samples were then centrifuged, washed with PBS, and treated with 0.25% triton X-100 for 10 minutes at room temperature. The cells were washed again, resuspended in 2.5 μg/ml of PI and 250 μg/ml Rnase A in PBS, and incubated at 4° C. overnight prior to measurement. Cellular fluorescence was measured using the Facscalibur flow cytometry (Becton Dickinson, San Jose, Calif.). The simple-cell populations were determinated on the basis of their fluorescence-intensity values FL2-A and FL2-W.
The effects of HAMLET on DNA fragmentation were compared between untreated cells and those pre-treated with TSA to increase acetylation. Sub G0/G1 DNA fragmentation was quantified by flow cytometry using the methodology as described in Example 1.
(§1) Cells in medium were used as controls.

[2] = test system: acetyl histone H4 in Jurkat cells; assay: acetyl histone H4 by flow cytometry; format: cell-based; conditions: for histone acetylation (Example 5): TSA 3 hours or 18 h, HAMLET 3 h, total population
Protocol: Acetyl histone H4 and Cell Cycle Analysis by cytometry—Cells were harvested, washed with PBS and then fixed in suspension in 75% cold ethanol at 4° C. for 2 hours at least. The samples were then centrifuged, washed with PBS, and treated with 0.25% triton X-100 for 10 minutes at room temperature. After addition of 3 ml of PBS and centrifugation, the cells were incubated for at least 30 min in swine serum 1% (DAKO, Solna, Sweden) in PBS. After addition of 3 ml of PBS and centrifugation, the cells were incubated for 3 hours at room temperature in the presence of rabbit polyclonal anti-body to human acetyl Histone H4 (Upstate), diluted 1/500 containing 1% BSA. Cells were then washed and incubated with a FITC-conjugated swine anti-rabbit antibody (DAKO, Solna, Sweden) diluted 1/20 in PBS containing 1% BSA for 2 h. The cells were washed again, resuspended in 2.5 μg/ml of PI and 250 μg/ml Rnase A in PBS, and incubated at 4° C. overnight prior to measurement. The control was prepared identically as described above, except the presence of the histone antibody. Cellular fluorescence was measured using the Facscalibur flow cytometry (Becton Dickinson, San Jose, Calif.). The simple-cell populations were determined on the basis of their fluorescence-intensity values FL2-A and FL2-W. Then red and green emissions from each cell were separated and quantified using the standard optics of the cytometer.
The level of chromatin acetylation in Jurkat cells was quantified by flow cytometry, using specific antibodies to acetylated histone H4 (FIG. 1). To increase acetylation, the cells were treated with the HDAC inhibitor TSA (FIG. 1C, FIG. 1E line 3).
The inhibition of HDAC causes an accumulation of acetylated histones. The level of acetyl histone H4 in Jurkat cells was quantified by flow cytometry after staining with specific antibodies. The cells were counterstained with propidium iodide to visualize the change in chromatin levels. Results are presented as density plot diagrams representing the DNA content on the Y-axis between four populations of cells (Sub1, G1, S, and G2), and the degree of acetylation of Histone H4 on the X-axis.

[3] = test system: HeLa cells expressing GFP-tagged Histone H4; assay: acetyl histone H4 and nuclear morphology by confocal microscopy; format: cell-based; conditions: TSA 100 ng/ml; vs control cells
Protocol: Acetyl histone H4 by confocal microscopy—Hela Cells were grown in Lab-Tek Chamber slides. Cells were washed twice in PBS, and then fixed 10 minutes in PBS formaldehyde 4%. The samples were then centrifuged, washed with PBS, and treated with 0.1% triton X-100 for 2 minutes at room temperature. After washes, cells were incubated for at least 30 min in swine serum 1% (DAKO, Solna, Sweden) in PBS. Then cells were incubated for 3 hours at room temperature in the presence of rabbit polyclonal antibody to human acetyl Histone H4 (Upstate), diluted 1/500 containing 1% BSA. Cells were then washed and incubated with an Alexa633-conjugated goat anti-rabbit antibody (Invitrogen) diluted 1/200 in PBS containing 1% BSA for 2 h. The cells were washed 3×5 min. in PBS prior to evaluation in an LSM 510 META confocal microscope (Carl Zeiss, Germany) with a 63× objective. The frequency of each chromatin patterns is shown in fold of control cells staining after counting a minimum of 30 cells in each experiment.
The effect of HAMLET and TSA on the acetylation of Histone H4 was further examined by confocal microscopy of adherent HeLa cells expressing GFP-tagged Histone H4. […] The acetylation level of histone H4 in the control cells was very weak (FIG. 9A).

A459 cells = assay: subG1 DNA fragmentation by flow cytometry in A459 cells; format: cell-based; conditions: TSA 100 ng/ml overnight, then HAMLET 30 μM one hour; data not shown
Protocol: In addition, non confluent A459 cells were treated with or without TSA 100 ng/ml overnight. Then HAMLET was added for one hour at 30 μM. As before, DNA fragmentation was followed both by flow cytometry. Following PI staining (cf. Materials and methods), subG1 populations were quantified and presented as percent of the total population.

[4] = viability by trypan blue exclusion (Vi-Cell XR); conditions: human, Jurkat cells
Protocol: (§2) Jurkat cells were first pretreated with or without TSA 100 ng/ml during 3 or 18H and then treated by HAMLET during 3H. Viability was assessed by trypan blue exclusion using the Vi-Cell XR apparatus.
(§3) To examine if HDAC inhibitors might influence the effects of HAMLET on the viability of tumour cells, Jurkat cells were pretreated with HDAC inhibitors TSA 3 hours or 18 h and then exposed to HAMLET (FIG. 5). The cellular response to the combined treatment was compared to the response to TSA alone (3 h or 18 h) and to HAMLET (3 h). Cells in medium were used as controls. The cellular response was quantified by flow cytometry and the subG1 population was used as a measure of chromatin fragmentation and cell death (FIGS. 5 and 6A). In parallel, cell viability was assessed by ATP levels (FIG. 6B) and trypan blue exclusion (FIG. 6C).

[5] = biological activity of α-lactalbumin mutants in apo-conformation; conditions: mutant proteins stable in apo-conformation at physiologic temperatures, without cofactor
[6] = bovine α-lactalbumin mutants, Permyakov et al. 2001; cited from earlier work
Jurkat cells [7] = assay: cell viability by ATP levels; format: cell-based; conditions: 3 h exposure, vs control cells
Description: ATP monitoring reagent (AMR) was purchased from Cambrex (Wokingham, U.K.) in the form of a ViaLight™ HS kit and was reconstituted according to the manufacturers guidelines.
as §1

[8] = test system: tailless histones and DNA; assay: nucleosome assembly from tailless histones and DNA; format: biochemical, Drosophila melanogaster; conditions: radiolabelled 146 bp DNA fragments, gel
Protocol: FIG. 4. Effects of HAMLET on a mixture of tailless histones and DNA. HAMLET was added to a mixture of radiolabelled 146 bp DNA fragments and tailless histones. In the absence of HAMLET, no nucleosomes are formed (lane 1). […] Nucleosome assembly on the 146 bp fragment results in one single nucleosome species, designated N. At higher concentrations of HAMLET, more nucleosomes were formed and HAMLET associated with them to form a second band in the gel. HAMLET also dissolved the unspecific histone-DNA aggregated seen in the wells.
Histones—Native, folded histones were obtained from duck erythrocyte nuclei. Native or tailless Drosophila melanogaster histones were expressed in E. coli, purified and assembled into octamers. The fold and functional integrity of the histones were confirmed by nucleosome assembly on DNA.
Chromatin assembly—To generate nucleosomes, histone octamers (recombinant or purified from cells) were assembled on linear DNA according to the “salt jump” method (Stein, 1979). ^32P-labeled 256 bp fragments and carrier DNA (supercoiled plasmid DNA, final DNA concentration 200 μg/ml) were mixed with histones (histone:DNA weight ratio 0.4-0.6) in 2 M NaCl, 10 mM Tris-HCl (pH 7.5). The mixture was incubated for 10 min at 37° C., diluted to 0.5 M NaCl, incubated at the same temperature for 30 min, and dialyzed at 4° C. against 10 mM Tris-HCl (pH 7.5) and 1 mM EDTA for 2 h. […]

Jurkat cells [9] = assay: viability by trypan blue exclusion (Vi-Cell XR); conditions: HAMLET 3 h, in comparison with control
Protocol: as §2, §3

Molecule	DNA fragmentation (sub G0/G1), substance alone (Jurkat cells [1]; HAMLET 1 hour)	histone acetylation (Example 5) [2]	acetylation of Histone H4 [3]	intensity of the GFP (histone H4) staining [3]	size of the nuclei [3]	biological activity [5]	calcium binding [6]	other results
O=C(CCCCCCC(=O)Nc1ccccc1)NO [SAHA, suberoylanilide hydroxamic acid]	did not trigger DNA fragmentation							
CC(/C=C/C(=O)NO)=C\[C@@H](C)C(=O)c1ccc(N(C)C)cc1 [TSA, Trichostatin A]	did not stimulate DNA fragmentation	time dependent increase in histone acetylation	increase in the staining of the acetylation of histone H4	slight increase	slight increase in the size of the nuclei			subG1 population (Jurkat cells [1]; TSA alone, 18 h): 26.13%; HAMLET-induced DNA fragmentation after HDAC inhibitor pre-treatment (Jurkat cells [1]; pre-treated with TSA 100 ng/ml or SAHA 2.5 μM for 2 hours, HAMLET 1 hour): enhanced HAMLET-induced DNA fragmentation; time of maximal effect on acetylation ([2]; TSA treatment): two hours; acetylation of histone H4, increase vs control ([2]; increased concentration of TSA without HAMLET, intact cells (subG1 removed)): 2 fold; cell death (subG1) (A459 cells): significantly increased cell death; cytotoxicity at 18 h, 100 ng/ml [4]: 24.9%
B1						biologically inactive	totally abolish calcium binding	
B2						biologically inactive	still bound calcium but with lower affinity	
B3	induce DNA fragmentation	did not change the degree of acetylation	increase in the acetylation of Histone H4	increase of the intensity of the GFP staining	marked decrease in the size of the nuclei			subG1 population (Jurkat cells [1]; HAMLET alone, 3 h): 14.58%; decrease in ATP levels (Jurkat cells [7]; HAMLET 0.1 mg/ml): 9.2%; decrease in ATP levels (Jurkat cells [7]; HAMLET 0.2 mg/ml): 41.17%; decrease in ATP levels (Jurkat cells [7]; HAMLET 0.3 mg/ml): 85.71%; histone H4 acetylation (Example 1) ([2]; low concentrations of HAMLET 1H, TSA 100 ng/ml 2H, vs medium control): decrease in histone H4 acetylation; effect on mixture of tailless histones and 146 bp DNA [8]: assembly of nucleosomes; loss of viability by trypan blue exclusion (Jurkat cells [9]): 19.7%
